Assay in all cases: SPR
On the technique in general: In SPR one partner is held on a chip, and binding of the other changes the refractive index at the surface.

Assay [1] has as its target mouse CD1d loaded with α-GalCer (mouse) (UniProt P11609).
Assay [2] has as its target human CD1d loaded with α-GalCer, wild type (human) (UniProt P15813).
In assay [3] the target is human CD1d Arg79 to Ala mutant loaded with α-GalCer (human).
In assay [4] the target is human CD1d Gln150 to Ala mutant loaded with α-GalCer (human).
Assay [5] addresses human CD1d Lys86 to Ala mutant loaded with α-GalCer (human).
In assay [6] the target is human CD1d Met87 to Ala mutant loaded with α-GalCer (human).
The target of assay [7] is human CD1d Val147 to Ala mutant loaded with α-GalCer (human).
Assay [8] addresses human CD1d loaded with α-GalCer, wild type (human) (UniProt P15813). The source holds these as a separate data set.

pKd: −log10 of the molar value. Like-named read-outs stand apart in the source and are kept apart here.

UniProt P15813, sequence (P15813 20-301): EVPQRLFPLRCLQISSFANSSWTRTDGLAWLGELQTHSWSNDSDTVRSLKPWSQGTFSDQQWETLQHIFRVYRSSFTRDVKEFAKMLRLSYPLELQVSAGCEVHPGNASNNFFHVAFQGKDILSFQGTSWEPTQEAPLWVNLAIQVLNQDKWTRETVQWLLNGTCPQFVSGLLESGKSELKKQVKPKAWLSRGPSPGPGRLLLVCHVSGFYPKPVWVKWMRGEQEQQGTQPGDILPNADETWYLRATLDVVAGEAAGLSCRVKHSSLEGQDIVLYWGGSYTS
UniProt P11609, sequence (P11609 22-336): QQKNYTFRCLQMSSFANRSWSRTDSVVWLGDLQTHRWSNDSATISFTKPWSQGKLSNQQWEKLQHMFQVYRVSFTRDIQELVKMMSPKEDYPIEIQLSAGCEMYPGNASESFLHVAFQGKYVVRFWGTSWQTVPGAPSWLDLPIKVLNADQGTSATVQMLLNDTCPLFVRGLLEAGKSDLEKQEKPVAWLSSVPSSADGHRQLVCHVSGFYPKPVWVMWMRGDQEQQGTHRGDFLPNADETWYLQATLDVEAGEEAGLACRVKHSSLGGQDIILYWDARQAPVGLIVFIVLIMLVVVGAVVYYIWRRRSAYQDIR

Take “human NKT TCR (NKT15) Glu56β to Ala mutant”: the negative logarithm of the Kd (pKd) (usually the Kd on a negative log10 scale, so that one unit is a factor of ten) in assay [1] was 6.14.
Consider human NKT TCR (NKT15) Pro28αAla mutant, for which the figures for the negative logarithm of the Kd (pKd) in assay [2] and in assay [1] were 5.26 and 5.32, respectively.
Taken in the same sequence, the figures for human NKT TCR (NKT15) Tyr103βAla mutant were 6.15 and 6.09.
In assay [1], “human NKT TCR (NKT15) Arg103α to Ala mutant” had a pKd of 5.59.
The substance human NKT TCR (NKT15) Ser30αAla mutant showed a negative-log Kd (pKd) in assay [1] of 5.94.
Consider human NKT TCR (NKT15) Gly96αAla mutant, for which the results for the negative logarithm of the Kd (pKd) in assay [2] and in assay [1] were 5.97 and 5.92, respectively.
For “human NKT TCR (NKT15) Asn53β to Ala mutant” the same measures were 6.14 and 5.92.
With human NKT TCR (NKT15), wild type, the negative-log Kd (pKd) is 6.46 in assay [3]; 5.60 in assay [4]; 5.55 in assay [5]; 5.10 in assay [6]; 5.44 in assay [7]; 6.24 in assay [8]. Besides, the pKd in assay [2] was 6.34; in assay [1], 6.03.
